Source: patent US20250355001A1, “METHOD FOR DETECTING A TAU PROTEIN FRAGMENT IN A SAMPLE” (GTINVENT LIMITED, priority 2022, published 2025)

Experiments:
[1] = target: full length human tau protein 2N4R (hT40) (human) (UniProt P10636); assay: Simoa sandwich, capture S1G2, biotinylated detector
[2] = target: full length human tau protein 2N4R (hT40) (human) (UniProt P10636); assay: Simoa sandwich, capture CB7, biotinylated detector
[3] = target: full length human tau protein 2N4R (hT40) (human) (UniProt P10636); assay: Simoa sandwich, capture Tau12, biotinylated detector
[4] = target: full length human tau protein 2N4R (hT40) (human) (UniProt P10636); assay: Simoa sandwich, capture S1D12, biotinylated detector
[5] = target: full length human tau protein 2N4R (hT40) (human) (UniProt P10636); assay: SPR, hT40 immobilised, mAb analyte

Sequence of full length human tau protein 2N4R (hT40) (human) (P10636 other isoform, or with tags, fused parts or gaps limits assumed): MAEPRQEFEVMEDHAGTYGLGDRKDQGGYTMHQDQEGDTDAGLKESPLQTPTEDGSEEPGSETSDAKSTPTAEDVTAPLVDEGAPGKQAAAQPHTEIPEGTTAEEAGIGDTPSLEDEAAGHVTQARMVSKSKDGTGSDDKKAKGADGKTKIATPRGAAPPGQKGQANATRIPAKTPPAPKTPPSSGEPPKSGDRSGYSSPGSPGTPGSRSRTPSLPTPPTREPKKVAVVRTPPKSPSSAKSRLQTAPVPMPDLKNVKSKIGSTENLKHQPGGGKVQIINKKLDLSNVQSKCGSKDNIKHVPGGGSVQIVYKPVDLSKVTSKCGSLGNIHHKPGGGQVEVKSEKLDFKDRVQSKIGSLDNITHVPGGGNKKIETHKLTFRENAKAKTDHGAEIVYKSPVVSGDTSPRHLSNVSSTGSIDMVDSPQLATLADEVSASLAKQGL

Which Simoa limit of detection [1] does the source give for Tau46 (antibody) here?
The Simoa limit of detection was 2.2 pg/mL.

And the Simoa limit of detection [2]?
The Simoa limit of detection was 2.2 pg/mL.

Which results are given for HT7 (antibody)?
Simoa limit of detection [3]: 2.2 pg/mL; Simoa limit of detection [1]: 0.32 pg/mL; Simoa limit of detection [4]: 0.32 pg/mL; Simoa limit of detection [2]: 2.2 pg/mL

With Tau12 mAb (antibody) as the substance, how does the Simoa limit of detection [1] read?
The Simoa limit of detection was 1.6 pg/mL.

And the Simoa limit of detection [4]?
Its Simoa limit of detection is 0.75 pg/mL.

And the Kd [5]?
The Kd was 1.44 nM.

For BT2 (antibody), which Simoa limit of detection [4] is on record?
The Simoa limit of detection was 0.32 pg/mL.

What about the Simoa limit of detection [2] of the same substance?
The Simoa limit of detection was 0.75 pg/mL.
